From patent publication US20110293558A1, “MATERIAL PROPERTIES OF T CELLS AND RELATED METHODS AND COMPOSITIONS” (Massachusetts Institute of Technology, priority 2010, published 2011)
Entries after “also recorded” stand apart in the source; their conditions may differ.

B1: CCL19: chemokine CCL19 (R&D Systems) used as chemoattractant for T cells (protein, UniProt Q99731 22-98, looked up)
C-C motif chemokine 19: GTNDAEDCCLSVTQKPIPGYIVRNFHYLLIKDGCRVPAVVFTTLRGRQLCAPPDQPWVERIIQRLQRTSAKMKRRSS

Experiments:
[1] = system: Acute promyelocytic leukemia cells; conditions: differentiation down the neutrophil lineage for three days; cited from earlier work
naïve WAS−/− T cells = assay: In vitro Transwell cell migration toward CCL19; format: cell-based, mouse
Experimental: (§1) Cells from the peripheral lymph nodes and the spleen of Balb/c mice and WAS−/− mice on Balb/c background were pooled and enriched using the EasySep Mouse CD8+ T Cell Enrichment Kit from STEMCELL Technologies (British Columbia, Canada). Enrichment was confirmed using fluorescence-activated cell sorting (FACS) by staining the cells with FITC/anti-Thy1.2 and PE/anti-CD8α antibodies (Abs). The memory T cell population was assessed by evaluating the expression of CD44 and CD62L via FACS. T cells in an activation medium with 100 units/mL IL-2 and 1% anti-CD28 Ab were activated by plate-bound anti-CD3 Abs for 4 day at 37° C. The activation medium included RPMI with 10% FBS, 10 mM HEPES (1M), 1% NEAA, 1% sodium pyruvate (100 mM), 50 μM β-mercaptoethanol, 4 mM L-glutamine, and 100 μg/mL Pen/Strep. Cell activation was verified via FACS measurement of CD25. Enriched WT and WAS−/− T cells in DMEM with 1% BSA and 0.1% Pen/Strep were induced to migrate through polycarbonate Transwell inserts (Costar, Cambridge, Mass.) with 5-μm pores in a 24-well plate toward a CCL19 chemokine source (R&D Systems, Minneapolis, Minn.). Inserts contained 5×10^5 cells in 100 μL of medium, and wells contained 1 mL of medium with either no CCL19 or 100 ng/mL of CCL19. Cells were allowed to migrate for ˜7 hours at 37° C., and those that crossed the membrane were collected and used for MPA studies.

naïve WT T cells = assay: In vitro Transwell cell migration toward CCL19; format: cell-based, mouse; conditions: after CCL19 exposure
Experimental: as §1

WAS−/− T cells = assay: Micropipette aspiration of chemokine-stimulated T cells; format: cell-based, mouse; conditions: naïve WAS−/− T cells
Experimental: (§2) Micropipettes made using a micropipette puller were trimmed to 2.5-3 or 4.5-5 μm inner diameter for testing naïve and activated T cells. MPA glass chambers consisted of a 24 mm×60 mm microscope coverslip bottom, a U-shaped parafilm spacer, and a 22 mm×22 mm microscope coverslip top. The assembly was baked for two hours at 80° C. to ensure good adhesion between the components.
(§3) Enriched WT and WAS−/− T cells in DMEM with 1% BSA and 0.1% Pen/Strep were induced to migrate through polycarbonate Transwell inserts (Costar, Cambridge, Mass.) with 5-μm pores in a 24-well plate toward a CCL19 chemokine source (R&D Systems, Minneapolis, Minn.). Inserts contained 5×10^5 cells in 100 μL of medium, and wells contained 1 mL of medium with either no CCL19 or 100 ng/mL of CCL19. Cells were allowed to migrate for ˜7 hours at 37° C., and those that crossed the membrane were collected and used for MPA studies.
(§4) 3×10^5 cells in 100 μL RPMI with 10% FBS and 1% HEPES was stained with 10 μL trypan blue. The mixture was added to 600 μL of either the RPMI medium or the T cell activation medium with IL-2 for naïve and activated T cell testing. Migratory T cells were tested in the medium used for migration. The MPA device was based on the design of Hochmuth et al (18). The aspiration rate and volume were 36 mL/hr and 2 mL, corresponding to a total pressure of ˜400 Pa. The cell movement in the micropipette was recorded with a CCD camera. Aspirations were performed at approximately room temperature.
(§5) MPA data were fitting using the half-space model (77) described by the expressions:
(§6) where E is the cell modulus, L is the length from the micropipette opening to the cell leading edge, Δp is the pressure differential at a particular L, ri and ro are the inner and outer […] of the micropipette, and φ is the wall function that is approximately […]. The ImageJ software was used to manually track the change in L. By plotting Δp against ri/L and finding the best linear fit (minimal total error) a modulus could be derived from the slope of the line. […]

WT T cells = assay: as above; format: cell-based, mouse
Experimental: as §2, §3, §4, §5, §6

Molecule | compliance of differentiated cells relative to control (more compliant) [1] [%] | cells with naïve phenotype (CD62L and CD44 co-staining), FACS (naïve WAS−/− T cells; all three groups (untreated, remained in insert, migrated)) [%] | cells migrated (naïve WAS−/− T cells; seven hours exposure to CCL19, 100 ng/mL, 5-μm pore inserts) [%] | migrating cells stained CD62L high and CD44 low (naïve phenotype), FACS (naïve WT T cells) [%] | change in modulus before and after the chemokine treatment (Student's t test) (WAS−/− T cells) | stiffness compared to activated cells (WT T cells; migratory WT cells after CCL19) | change in modulus before and after the chemokine treatment (Student's t test) (WT T cells; naïve WT T cells)
CC1=C(/C=C/C(C)=C/C=C/C(C)=C/C(=O)O)C(C)(C)CCC1 [all-trans retinoic acid] | 45 |  |  |  |  |  | 
B1 |  | ~90 | ~6.4 | ~90 | did not pass the 95% significance level; also recorded: insignificant decrease | about 1.4 times | significantly different
